Reference: the supplement of paper PMC10567573

B1: ARL6IP1 (parent)
chain: YLDPSVLSGVSCFVMFLCLADYLV
B2: MIA2 (parent)
chain: SVIEPVQESSFRSRKIAVEDENDL

Variants of: B1
Assay: protein stability index of a GFP-peptide fusion (GPS, HEK-293T) (PSI 1-6); higher = more stable
Conditions: c terminus: a fixed tail appended
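Further: lentivirally expressed fusions sorted by FACS into six bins by GFP to DsRed ratio, PSI derived from sequencing read proportions per bin multiplied by bin number.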

Variant	protein stability index
YLDPSVLSTVSCFVMFLCLADYLV	3.03
YLDPSVLSSVSCFVMFLCLADYLV	2.12
YLDPSVLSEVSCFVMFLCLADYLV	2.77
YLDPSVLSPVSCFVMFLCLADYLV	2.66
YLDPPVLSGVSCFVMFLCLADYLV	3.19
YLDPGVLSGVSCFVMFLCLADYLV	3.63
YLDPSVLSGMSCFVMFLCLADYLV	2.44
YLDPSVLSGISCFVMFLCLADYLV	3.18
YLDPSVLSGYSCFVMFLCLADYLV	2.38
YLDPSVLSGVSCFVMFLTLADYLV	3.26
YLDPSVLSGVSCFVMFLLLADYLV	3.54
YLDPSVLSGVSCFVMFLGLADYLV	2.47
YLDPSVLSGVSCFVMFLCLADHLV	2.31
YLDPSVLSGVSCFVMFLCLADWLV	3.48
YLDPSVLSGVSCFVMFLCLADILV	2.44
YLDPSVLSGVSCFVMFLCLADNLV	3.07
YLDPSVLSGVSCWVMFLCLADYLV	3.83
YLDPSVLSGVSCKVMFLCLADYLV	2.38
YLDPSVLSGVSCAVMFLCLADYLV	3.86
YLDPSVLSGVSCFVKFLCLADYLV	3.66
YLDPSVLSGVSCFVWFLCLADYLV	2.93
YLDPSVLSGVSCFVRFLCLADYLV	2.59

Variant	protein stability index
YLDPSVLSGVSCFVHFLCLADYLV	3.49
YLDPSVLSGVSCFVVFLCLADYLV	2.38
YPDPSVLSGVSCFVMFLCLADYLV	2.76
YIDPSVLSGVSCFVMFLCLADYLV	1.63
YADPSVLSGVSCFVMFLCLADYLV	2.29
YYDPSVLSGVSCFVMFLCLADYLV	2.35
YTDPSVLSGVSCFVMFLCLADYLV	3.75
YLDPSVLSGVSLFVMFLCLADYLV	2.45
YLDPSVLSGVSDFVMFLCLADYLV	3.35
YLDPSVLSGVSAFVMFLCLADYLV	3.07
YLDPSVLSGVSMFVMFLCLADYLV	2.56
YLDPSVLSGVSCFGMFLCLADYLV	2.85
YLDPSVLSGVSCFEMFLCLADYLV	2.54
YLDPSVLSGVSCFHMFLCLADYLV	2.06
YLDPSVLSGVSCFTMFLCLADYLV	2.04
YLDPSVLSGVSCFAMFLCLADYLV	2.62
DLDPSVLSGVSCFVMFLCLADYLV	2.61
MLDPSVLSGVSCFVMFLCLADYLV	3.37
YLDPSVLSGVGCFVMFLCLADYLV	3.42
YLDPSVLSGVECFVMFLCLADYLV	4.25
YLDPSVLSGVVCFVMFLCLADYLV	4.17
YLDPSVLSGVSCFVMNLCLADYLV	2.88

Variant	protein stability index
YLDPSVLSGVSCFVMWLCLADYLV	2.85
YLDPSVLNGVSCFVMFLCLADYLV	3.35
YLDPSVLTGVSCFVMFLCLADYLV	2.79
YLDPSVLVGVSCFVMFLCLADYLV	3.82
YLDPSVLGGVSCFVMFLCLADYLV	3.79
YLDPSVLCGVSCFVMFLCLADYLV	3.59
YLDPSVLSGVSCFVMFLCEADYLV	3.85
YLDPSVLSGVSCFVMFLCCADYLV	4.14
YLDPSVLSGVSCFVMFLCRADYLV	2.38
YLDPSVLSGVSCFVMFLCQADYLV	2.06
YLDPSVLSGVSCFVMFLCMADYLV	2.06
YLDPSVLSGVSCFVMFLCAADYLV	2.42
YLDPSVLSGVSCFVMFLCKADYLV	2.81
YLDPSVLSGVSCFVMFLCHADYLV	3.03
YLDPSCLSGVSCFVMFLCLADYLV	3.38
YLDLSVLSGVSCFVMFLCLADYLV	2.76
YLDGSVLSGVSCFVMFLCLADYLV	3.42
YLDKSVLSGVSCFVMFLCLADYLV	2.63
YLDPSVLSGVSCFVMFLCLADYKV	3.29
YLDPSVLSGVSCFVMFLCLADYGV	2.59
YLDPSVLSGVSCFVMFLCLADYPV	2.39
YLDPSVLSGVSCFVMFLCLIDYLV	1.85

Variant	protein stability index
YLDPSVLSGVSCFVMFLCLNDYLV	3.34
YLDPSVLSGVSCFVMFDCLADYLV	2.49
YLDPSVLSGVSCFVMFTCLADYLV	3.26
YLDPSVLSGVSCFVMFACLADYLV	2.34
YLDPSVLSGVSCFVMFFCLADYLV	2.82
YLDPSVLSGVSCFVMFGCLADYLV	4.55
YLDPSVLSGVSCFVMFWCLADYLV	3.18
YLDPSVASGVSCFVMFLCLADYLV	3.11
YLDPSVCSGVSCFVMFLCLADYLV	1.88
YLDPSVYSGVSCFVMFLCLADYLV	2.89
YLSPSVLSGVSCFVMFLCLADYLV	2.72
YLNPSVLSGVSCFVMFLCLADYLV	3.7
YLTPSVLSGVSCFVMFLCLADYLV	2.59
YLQPSVLSGVSCFVMFLCLADYLV	3.57
YLIPSVLSGVSCFVMFLCLADYLV	2.83
YLDPSVLSGVSCFVMFLCLADYLC	3.6
YLDPSVLSGVSCFVMFLCLADYLI	3.52
YLDPSVLSGVSCFVMFLCLAFYLV	3.29
YLDPSVLSGVSCFVMFLCLAVYLV	3.96
YLDPSVLSGVSCFVMFLCLAYYLV	1.55

Variants of: B2
Assay: as above
Conditions: c terminus: a fixed tail appended

Variant	protein stability index
SVIWPVQESSFRSRKIAVEDENDL	3.74
SVILPVQESSFRSRKIAVEDENDL	4.62
SVIQPVQESSFRSRKIAVEDENDL	4.7
SVISPVQESSFRSRKIAVEDENDL	5.25
SVIDPVQESSFRSRKIAVEDENDL	5.01
SVIYPVQESSFRSRKIAVEDENDL	4.64
SVIMPVQESSFRSRKIAVEDENDL	4.9
SVIAPVQESSFRSRKIAVEDENDL	5.68
